# Data from the supplement of paper PMC12042874.
# ± gives the uncertainty stated by the source.
# Experiment: amyloid nucleation score (Sup35N fusion, yeast selection) (log enrichment); library NNK1; higher = more nucleation; inactive = no reads after selection
# Method in brief: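 Sup35N was fused to peptides of 20 random codons and expressed in psi-negative yeast, which were induced with 100 μM copper sulfate for 24 hours and then grown on medium lacking adenine and uracil for 7 days at 30°C. Plasmid inserts from input and output were sequenced on Illumina. The nucleation score is the DiMSum log enrichment of output over input reads, centred on the mode score of non-aggregating sequences. Sequences with under 100 input reads were left out, and random libraries had three technical output replicates.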
row,Substance,amyloid nucleation score
1,LNCPFYIFFLLHTVSA,6.608 ± 0.065
2,LNGVNLRGFTRWLVGCGDVD,0.141 ± 0.65
3,LNKTSFPWLKSYKVWRNVMD,1.71 ± 0.58
4,LNLWPIDANVGWLWKRWRWR,-0.538 ± 2.1
5,LNNYNGVTVGWGNSWYLYLG,-0.116 ± 0.45
6,LNSRHVNSYF,0.869 ± 0.48
7,LNTVSEITVVAKLNF,2.3 ± 0.12
8,LNWSNKWSFTNMRRFCAMF,0.01 ± 0.26
9,LNYFLLLMFQCDGRILFRFY,0.652 ± 0.84
10,LPALKCELGAAMLSAQLMAR,-0.18 ± 0.24
11,LPCYSSLQSLGQRMQVKG,0.025 ± 0.31
12,LPFVDLKFL,0.374 ± 0.28
13,LPNRCASIVRQIVQVWCVS,2.41 ± 0.12
14,LPPTLVLMIHNRRVCRCSLA,1.05 ± 0.69
15,LPSIYSFSSCNVVEDEGQM,-0.685 ± 1.2
16,LQFLSGYNC,0.293 ± 0.49
17,LQQITGSCSFSGWGLK,0.091 ± 0.46
18,LQRGQVLALADSRFCVRCSR,1.02 ± 0.57
19,LQVVALW,0.123 ± 0.56
20,LRAVTWLRYAYQGLFDVDV,-0.07 ± 0.56
21,LRAYSVAFYRLPHVSN,1.35 ± 0.79
22,LRCLVLYDEVANGRPEDSGG,0.725 ± 1

row,Substance,amyloid nucleation score
1,LRFRMNSLLVKWFFP,-0.199 ± 0.34
2,LRGRLYASGRVEFYHKQSLF,0.526 ± 0.83
3,LRHLVIGNKNALLVWFRSHI,0.817 ± 0.52
4,LRIFSKLFTSSLYNCFEGIP,0.143 ± 0.58
5,LRKALRLDVHLGTNLYLNSF,0.542 ± 0.75
6,LRLPSRAFEGFRREAAWGST,1.23 ± 0.76
7,LRNDLVETSVLGA,1.47 ± 0.54
8,LRNVSFSDFVYWSGFFRGVV,inactive
9,LRPYFLGCRRSKKPKALLAG,0.252 ± 0.8
10,LRSLAPCVLGKTGESEPRAF,0.056 ± 0.58
11,LRTISNVDLLSVS,0.138 ± 0.54
12,LRTNTWCYGESSRLWGWCGG,0.067 ± 1.2
13,LRTVPIALIRNMLPVNQESR,0.479 ± 0.53
14,LRVYPGTYLTNRETRSRSCI,0.828 ± 0.43
15,LRYFDFCISRLDSEGN,0.264 ± 0.64
16,LSAMWKSPMHRERRTWGM,0.096 ± 0.42
17,LSCYLYALVKGLGLRVGHIK,0.177 ± 0.55
18,LSEYYKAKGDRVTWPQFLTT,-0.453 ± 0.49
19,LSFIKRMTMNMLTKLD,1.68 ± 0.13
20,LSGGWEVPQVVAERKARPWI,-0.037 ± 1.7
21,LSGMDTLGIVRCAVA,-0.325 ± 0.46
22,LSGSMGA,-0.105 ± 0.44

row,Substance,amyloid nucleation score
1,LSGTNASIWY,-0.212 ± 0.35
2,LSGVLGSVAFAYIRPRTGFG,-0.143 ± 1.2
3,LSHVKTTRLMPLET,-1.11 ± 1.7
4,LSKYP,0.383 ± 0.35
5,LSLNSHYCDDCVWLFR,1.02 ± 0.45
6,LSLRCCGFYLIVFFVIKFVS,-0.536 ± 0.29
7,LSLSYHMLSYI,inactive
8,LSNALS,0.8 ± 0.81
9,LSNFDRWKTSTVWNSGWFAA,-0.149 ± 1.3
10,LSRIDRFTVGENMVTATFLI,inactive
11,LSRILLRKNC,0.224 ± 0.61
12,LSRLCGSRLLVRVVWRHYRG,-0.21 ± 0.28
13,LSRSSWQQARICARVHGLGG,1.05 ± 0.58
14,LSSRHVAGYQEYLNDL,-0.88 ± 0.72
15,LSSSWLNKKLH,-0.647 ± 0.9
16,LSTTWDFESMGVRVSREYPG,0.351 ± 0.58
17,LTCKMDIDKVWVGDMLYS,-0.677 ± 0.62
18,LTEDMNYFAY,0.252 ± 0.46
19,LTFLRIYAIDSEPHLSGTML,-0.51 ± 0.71
20,LTGGVDHC,0.138 ± 0.32
21,LTGRCPFVGLRLEGHLFLTG,-0.169 ± 0.81
22,LTKISQLKRCDHKMRKSVSN,0.517 ± 0.26

row,Substance,amyloid nucleation score
1,LTKRVGFDEMSLPHQDASSV,-0.289 ± 0.36
2,LTMCSGICEVIRQARDHHYR,0.149 ± 0.97
3,LTSFETFQNFNMAVMYAR,-0.236 ± 0.65
4,LTSSCQSSLKRKWGNIWHIR,-0.641 ± 1.1
5,LTYRVFIHYRSRQYVFGTVS,-0.667 ± 0.62
6,LVAFRYLRSGSSRLKFSVLF,-0.787 ± 0.48
7,LVESMNLIPATANRHNFTRL,-0.672 ± 1.4
8,LVGGVTNWWCVEVDQKGQNG,inactive
9,LVGPAVVSYCCIRLISVVD,1.94 ± 0.58
10,LVGRYSWWQRRRHGTCMGTV,0.629 ± 0.54
11,LVGVWMDCLMKPKPIARTLP,inactive
12,LVIALSQTDAYGELVSRNMC,1.06 ± 0.97
13,LVIFKLTM,3.51 ± 0.066
14,LVISETWGSCFWNSVDSCAG,0.815 ± 0.66
15,LVMFSNLCSWFLLF,0.966 ± 0.62
16,LVRWVCIGFRYILRGELGVE,0.052 ± 0.28
17,LVSLRSIRSRRWCSRQFWSM,-0.111 ± 0.5
18,LVSWSTVDVSQLTAWKKPAG,-0.431 ± 0.36
19,LVTFPKLSEVIHGKADVMHS,-0.633 ± 0.88
